One assay concerns MDA-MB-231 cells. Briefly: GFP-TR3/ΔDBD localization and cytochrome c release in MDA-MB-231 cells. The settings on record: MDA-MB-231, absence of any treatment. The format is cell-based. Here is the method: (§1) Subcellular localization assays—Cells were seeded onto cover-slips in 6-well plates overnight, then transiently transfected with GFP-fusion expression plasmids. After 16 hours, cells were washed with PBS and fixed in 4% paraformaldehyde. For mitochondrial staining, cells were then incubated with anti-Hsp60 goat IgG (Santa Cruz, USA), followed by anti-goat IgG conjugated with Cy3 (Sigma). For cyt c staining, cells were incubated with monoclonal anti-cyt c IgG (PharMingen), followed by anti-mouse IgG conjugated with Cy5 (Amersham). Fluorescent images were collected and analyzed using a MRC-1024 MP laser-scanning confocal microscope (Bio-Rad). Subcellular fractionation assays were performed as described (Li, et al. 2000 Science 289:1159-1164). Briefly, cells (1×10^7 cells) suspended in 0.5 ml hypotonic buffer (5 mM Tris-HCl, pH 7.4, 5 mM KCl, 1.5 mM MgCl2, 0.1 mM EGTA, pH 8.0, and 1 mM DTT) were homogenized and cell extracts were centrifuged at 500×g for 5 min. […]
(§2) To study whether the TR3 nuclear-to-mitochondrial targeting pathway also occurs in breast cancer cells, a GFP-TR3 fusion construct was transfected into MDA-MB-231 cells. […] Next, GFP-TR3/ΔDBD was transiently transfected into ZR-75-1 or MDA-MB-231 cells, stained for mitochondria (Hsp60) and cytochrome c (Cyt c), and analyzed by confocal microscopy.

Another assay has as its system ZR-75-1 cells. The experiment in a line: GFP-TR3/ΔDBD localization and cytochrome c release in ZR-75-1 cells. The settings on record: ZR-75-1, absence of any treatment. The format is cell-based. Here is the method:
as §1, §2

The target of another assay is T1, Bcl-2/1-80 (Homo sapiens, UniProt P10415).
T1 construct: a fragment of Bcl-2 comprising the first 80 amino acids (Bcl-2/1-80); expressed in transfected cells; host or cells: HEK293T
Briefly: Co-IP assay with Bcl-2/1-80. In kind it is binding. Here is the method:
(§3) Therefore, TR3/ΔDBD was analyzed as to its interaction with a fragment of Bcl-2 comprising the first 80 amino acids (Bcl-2/1-80). […] The Bcl-2/1-80 fragment encompasses the N-terminal BH4 domain followed by an unstructured loop domain of approximately 50 amino acids length. To determine whether the BH4 domain or the loop region was responsible for binding to TR3/ΔDBD, TR3/ΔDBD interaction with Bcl-2 mutants lacking the BH4 domain (Bcl-2/ΔBH4) or the loop region (Bcl-2/ΔLoop) was analyzed. […] Thus, the loop region of Bcl-2 is involved in binding to TR3.
Deletion of the loop region of Bcl-2 completely blocks paclitaxel-induced apoptosis (Rakesh et al. 1999 PNAS USA 96:3775-3780). To further investigate whether the loop region of Bcl-2 is responsible for its interaction with TR3/ΔDBD, TR3/ΔDBD was co-transfected with the first 80-residue fragment of Bcl-2 including the loop region and BH4 domain.

Another assay concerns the target T2, Bcl-2/ΔBH4 (Homo sapiens, UniProt P10415, DEL7-30).
T2 construct: expressed in transfected cells; host or cells: HEK293T
The experiment in a line: Co-IP assay with Bcl-2/ΔBH4. The format is binding. Here is the method:
as §3

Assay [1] has as its system peripheral blood lymphocytes (PBLs). The experiment in a line: TR3 subcellular localization in peripheral blood lymphocytes. The format is cell-based, human. The settings on record: DsRed2-Mito.
Excerpt: TR3 subcellular localization was studied by both confocal microscopy and subcellular fractionation approaches. For microscopy experiments, freshly isolated PBLs were transfected with GFP-TR3, then treated with phorbol ester TPA and the calcium ionophore ionomycin, which induce TR3-dependent apoptosis of T-lymphocytes.
The target of a further assay is T3, Bcl-2 (Homo sapiens, UniProt P10415).
T3 construct: expressed in transfected cells; host or cells: HEK293T
The experiment in a line: Bcl-2 conformation by immunoprecipitation with epitope-specific antibodies. In kind it is binding. From the text: Second, the effects of TR3/ΔDBD on Bcl-2 conformation were studied by immunoprecipitation assays.

T3 sequence (P10415 whole entry): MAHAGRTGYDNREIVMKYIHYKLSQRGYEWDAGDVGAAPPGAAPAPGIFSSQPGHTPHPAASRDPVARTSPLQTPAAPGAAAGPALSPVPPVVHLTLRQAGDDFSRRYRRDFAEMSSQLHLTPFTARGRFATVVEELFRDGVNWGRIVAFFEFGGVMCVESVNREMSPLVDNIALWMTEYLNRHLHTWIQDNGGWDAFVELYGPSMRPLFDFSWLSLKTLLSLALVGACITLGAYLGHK
T2 sequence (P10415 with tags, fused parts or gaps DEL7-30): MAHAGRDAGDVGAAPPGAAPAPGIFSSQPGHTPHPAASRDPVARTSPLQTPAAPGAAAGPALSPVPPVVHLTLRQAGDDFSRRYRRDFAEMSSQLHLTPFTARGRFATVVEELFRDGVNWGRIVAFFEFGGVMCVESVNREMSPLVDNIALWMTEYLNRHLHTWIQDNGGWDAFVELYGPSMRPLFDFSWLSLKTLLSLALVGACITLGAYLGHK
T1 sequence (P10415 1-80): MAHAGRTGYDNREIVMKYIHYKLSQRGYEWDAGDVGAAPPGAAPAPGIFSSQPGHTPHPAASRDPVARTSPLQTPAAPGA

B1: TR3/ΔDBD: TR3 mutant with the DNA binding domain removed; used as GFP fusion (protein)
chain: MPCIQAQYGTPAPSPGPRDHLASDPLTPEFIKPTMDLASPEAAPAAPTALPSFSTFMDGYTGEFDTFLYQLPGTVQPCSSASSSASSTSSSSATSPASASFKFEDFQVYGCYPGPLSGPVDEALSSSGSDYYGSPCSAPSPSTPSFQPPQLSPWDGSFGHFSPSQTYLVLHRLQCARGFGDWIDSILAFSRSLHSLLVDVPAFACLSALVLITDRHGLQEPRRVEELQNRIASCLKEHVAAVAGEPQPASCLSRLLGKLPELRTLCTQGLQRIFYLKLEDLVPPPPIIDKIFMDTLPF
modifications: left off: large carriers; small tags and cut ends
notes: used as GFP fusion
As for B1, in the assay on MDA-MB-231 cells, the GFP-TR3/ΔDBD subcellular localization result is listed as “targeted to mitochondria” and the cytochrome c release result was “caused release of cytochrome c from the mitochondria”. In the assay with ZR-75-1 cells, the GFP-TR3/ΔDBD subcellular localization result is “targeted to mitochondria” and the cytochrome c release result was “caused release of cytochrome c from the mitochondria”. In the assay with Bcl-2/1-80, the “interaction with Bcl-2/1-80 (Co-IP)” value is on record as “strongly interacted”. Moreover, the “interaction with Bcl-2/ΔBH4 (Co-IP)” value with Bcl-2/ΔBH4 was “retained the ability to interact”. In assay [1], the mitochondrial colocalization result was “colocalized extensively with DsRed2-Mito”. For the same molecule, in the assay with Bcl-2, the “binding of Bcl-2 by antibody against BH3-binding pocket” value is given as “reduced binding”, the “binding of Bcl-2 by antibody against BH3 domain” value is recorded as “enhancing binding” and the “immunoprecipitation efficiency of antibody against whole Bcl-2 protein” value is reported as “did not affect”.

These data come from patent US8273705B2, “Conversion of apoptotic proteins” (The Burnham Institute, priority 2002, dated 2012).
